Consider one molecule from patent publication CN111995674A (INST MILITARY MEDICINE ACADEMY MILITARY SCIENCES PLA, dated 2020).

The target in this test is T1, 肉毒毒素AHC片段 (UniProt P0DPI1 873-1296).
T1 construct: domain: AHC片段
In words: ELISA, coated antigen, anti-human IgG-HRP.

T1 sequence (P0DPI1 873-1296 limits assumed): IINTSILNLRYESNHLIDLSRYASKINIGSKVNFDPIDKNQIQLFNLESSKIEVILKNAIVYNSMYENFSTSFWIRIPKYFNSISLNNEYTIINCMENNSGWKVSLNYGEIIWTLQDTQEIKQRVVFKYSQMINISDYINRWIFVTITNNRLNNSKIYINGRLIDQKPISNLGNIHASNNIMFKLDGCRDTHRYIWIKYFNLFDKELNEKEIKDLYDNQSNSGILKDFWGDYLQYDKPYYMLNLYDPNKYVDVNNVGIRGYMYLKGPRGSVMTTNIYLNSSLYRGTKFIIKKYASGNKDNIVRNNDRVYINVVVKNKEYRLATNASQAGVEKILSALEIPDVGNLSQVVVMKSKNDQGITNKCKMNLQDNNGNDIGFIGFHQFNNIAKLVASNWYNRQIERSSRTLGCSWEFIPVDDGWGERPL

B1: 人鼠嵌合全抗体mhC3 (antibody, V domains shown)
VH: EVQLVESGGDLVKPGGSLKLSCAASGFTFNTYAMNWVRQTPGKGLEWVARIRSKSNNYATYYADSVKDRFTISRDDSQSMLYLQMNNLKTEDTAMYYCVTPYYGNYADWFTYWGQGTSVTVSS
VL: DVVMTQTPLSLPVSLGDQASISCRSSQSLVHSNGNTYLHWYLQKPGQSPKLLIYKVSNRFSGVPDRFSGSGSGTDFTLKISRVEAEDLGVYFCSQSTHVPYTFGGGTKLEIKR
notes: also called mhC3抗体; C3 (图5、图6)
B1: the binding result is “no binding (tested: 300μg/mL)”.
